Data on three molecules can be found in publication doi:10.1101/2022.09.29.510206 (bioRxiv, 2022).

B1: Fz4_(CRD-Connector) (M105N) mutant (domain or fragment, human, UniProt Q9ULV1 42-179, looked up)
chain: ERRCDPIRISMCQNLGYNVTKMPNLVGHELQTDAELQLTTFTPLIQYGCSSQLQFFLCSVYVPNCTEKINIPIGPCGGMCLSVKRRCEPVLKEFGFAWPESLNCSKFPPQNDHNHMCMEGPGDEEVPLPHKTPIQPGE
modifications: M105N is meant to introduce an N-linked glycosylation site
B2: mouse Fz8_(CRD-Connector), residues 30-170 (domain or fragment, UniProt Q61091 30-170, looked up)
chain: AKELACQEITVPLCKGIGYNYTYMPNQFNHDTQDEAGLEVHQFWPLVEIQCSPDLKFFLCSMYTPICLEDYKKPLPPCRSVCERAKAGCAPLMRQYGFAWPDRMRCDRLPEQGNPDTLCMDYNRTDLTTAAPSPPRRLPPP
B3: chimaera of Fz4CRD+Fz8_(Connector) (domain or fragment, human | mouse, UniProt Q9ULV1 42-151, looked up)
chain: ERRCDPIRISMCQNLGYNVTKMPNLVGHELQTDAELQLTTFTPLIQYGCSSQLQFFLCSVYVPMCTEKINIPIGPCGGMCLSVKRRCEPVLKEFGFAWPESLNCSKFPPQGNPDTLCMDYNRTDLTTAAPSPPRRLPPP

For the test, the target named is Norrin (Norrie Disease Protein), biotinylated (UniProt Q00604 25-133, biotin (in vivo biotinylation)). The test can be described thus: SPR. In general terms: Surface plasmon resonance follows binding to a sensor surface in real time, without labels.
Sequence of Norrin (Norrie Disease Protein), biotinylated (Q00604 25-133): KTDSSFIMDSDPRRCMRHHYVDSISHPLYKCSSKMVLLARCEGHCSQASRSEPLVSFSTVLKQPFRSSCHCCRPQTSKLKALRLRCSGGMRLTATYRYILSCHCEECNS
B1: the “fold weaker affinity than Fz4_(CRD-Connector)” value was around 53 fold.

For the molecule B2, the “fold weaker affinity than Fz4_(CRD-Connector)” value was around 55 fold.

For B3, the “fold weaker affinity than Fz4_(CRD-Connector)” value was around 15 fold.
